Source: patent US20240398896A1, “INFLAMMASOME INHIBITION” (National University of Singapore, priority 2021, published 2024)

Assays:
[1] = molecular target: T1, PYD-PYD interaction of human ASC (Homo sapiens, UniProt Q9ULZ3); assay: NanoBiT inhibition assay of PYD-PYD interaction in HEK293T cells; assay type: cell-based; conditions: LgBiT/SmBiT-tagged PYD pairs 10 or 1 ng each, bat ASC2-LSSmOrange 10 ng, FIG. 19, 20
T1 construct: Human ASC PYRIN domain (PYD) was PCR amplified; linker […]; expressed in transfected cells; host or cells: HEK293T
T1 sequence (Q9ULZ3 1-91 limits assumed): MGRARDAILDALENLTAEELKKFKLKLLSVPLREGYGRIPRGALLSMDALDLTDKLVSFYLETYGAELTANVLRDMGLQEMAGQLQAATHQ
From the text: Plasmids. Vectors were constructed by standard molecular cloning with pcDNA3.1 (+) as the backbone. Restriction enzyme sites used include NheI, AgeI (introduced), HindIII, BamHI, XhoI, and XbaI from 5′ to 3′ sequentially. […]. The N-terminal and C-terminal inserts of human ASC PYD or NanoBiT tags were flanked by AgeI/HindIII and BamHI/XhoI, respectively. The linker (GSSGGGGSGGGGSSG) flanked by HindIII/BamHI and C-terminal His10-tag flanked by XhoI/XbaI was oligo annealed. The gene fragments were introduced into the backbone by single, double, or triple insertions. The resulting vectors were sequenced using CMV-F and BGH-rev primers.
Cell Culture and Transfection. HEK293T cells were cultured in modified Eagle's medium (DMEM) with 10% fetal bovine serum in humidified 37° C. incubator with 5% CO2. Cells were seeded at a density of 3×10^5 cells/mL one day prior to transient transfection using Fugene 6 transfection reagent (Promega) according to the manufacturer's instructions. At 24 h post-transfection, cells are harvested for analyses.
NanoBiT and Inhibition Assay. White opaque plates were coated with 50 μL of 0.001% poly-L-lysine for at least 15 min at 37° C. and air-dried before seeding 3×10^5 cells/mL HEK239T cells. […] Luminescence is immediately quantified using BioTek Cytation 5 with a gain of 135 and an integration time of 1 s.

bat NLRP3 inflammasome = assay: ASC speck formation in HEK293T cells reconstituted with bat NLRP3-mCitrine and bat ASC-mPlum (ImageStream); assay type: cell-based, Pteropus alecto; conditions: bat NLRP3-mCitrine, bat ASC-mPlum, ASC2-LSSmOrange overexpressed, FIG. 3B
From the text: (§1) Inflammasome activation assays.
ImageStream imaging flow cytometry. […] Nuclei were stained with DAPI.

human ASC = molecular target: T2, human ASC (Homo sapiens, UniProt Q9ULZ3); assay: Co-immunoprecipitation of ASC2-His with human ASC-Flag from HEK293T cells; assay type: binding; conditions: 0.25 μg bat or hupa4 ASC2 vs 3 μg human ASC2 transfected, FIG. 26A
T2 construct: expressed in transfected cells; host or cells: HEK293T
T2 sequence (Q9ULZ3 whole entry): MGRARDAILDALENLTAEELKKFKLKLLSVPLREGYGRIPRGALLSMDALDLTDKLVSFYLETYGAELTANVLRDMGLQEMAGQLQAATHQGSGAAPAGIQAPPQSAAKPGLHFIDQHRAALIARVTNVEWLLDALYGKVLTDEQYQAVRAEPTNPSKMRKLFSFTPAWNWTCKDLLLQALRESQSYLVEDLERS
Experimental: (§2) Co-immunoprecipitation. HEK293T cells were transfected in 6-well plate with plasmids encoding His-tagged empty vector (His alone), bat ASC2, human ASC2, and Hupa4 ASC2 along with Flag-tagged human or bat ASC. 3 μg human ASC2, in contrast to 0.25 μg control, bat or hupa4 ASC2, were transfected to normalize the expression. At 48 h post-transfection, cells were lysed in IP lysis buffer (Pierce) according to manufacturer's protocol and centrifuged at 500 g for 10 minutes at 4° C. The supernatants were subjected to immunoprecipitation by incubation for 16 hours at 4° C. with anti-Flag (Sigma) incubated magnetic beads, followed by washing three times with TBS containing 0.05% Tween 20 and once with purified water. Bound proteins were separated by 15% SDS-PAGE, followed by immunoblotting analysis with the indicated antibodies.

bat ASC = assay: Co-immunoprecipitation of ASC2-His with bat ASC-Flag from HEK293T cells; assay type: binding; conditions: 0.25 μg bat or hupa4 ASC2 vs 3 μg human ASC2 transfected, FIG. 26B
Experimental: as §2

NLRP3 inflammasome [2] = molecular target: T3, NLRP3 inflammasome (Mus musculus, UniProt Q9EPB4); assay: Inflammasome activation in LPS-primed BMDMs of bat ASC2/rtTA mice stimulated with MSU crystals; assay type: cell-based; design: endogenous in cells; host or cells: BMDMs of C57BL/6 wild-type and bat ASC2/rtTA mice; conditions: Dox, LPS 3 h, MSU 16 h, FIG. 6D, 6E
T3 sequence (Q9EPB4 1-193): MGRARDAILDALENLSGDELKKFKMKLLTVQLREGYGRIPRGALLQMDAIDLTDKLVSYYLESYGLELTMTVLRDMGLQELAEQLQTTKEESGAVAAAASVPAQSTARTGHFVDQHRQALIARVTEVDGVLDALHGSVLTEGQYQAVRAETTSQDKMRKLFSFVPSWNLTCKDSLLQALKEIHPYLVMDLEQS
From the text: as §1

IAV = assay type: cell-based, mouse
[3] = system: Pteropine orthoreovirus 3 (PRV3M); assay type: cell-based, mouse; conditions: bat ASC2/rtTA vs WT BMDMs
[4] = system: peritonitis induced by MSU crystals; assay: Peritonitis induced by MSU crystals in bat ASC2/rtTA mice; assay type: in vivo, mouse; conditions: bat ASC2/rtTA vs WT mice, oral Dox 7 days, 200 μg MSU crystals i.p., 4 h
NLRP3 inflammasome [5] = molecular target: NLRP3 inflammasome (Homo sapiens, UniProt Q9ULZ3); assay: Inflammasome activation in LPS-primed THP-1 macrophages stably expressing ASC2, stimulated with nigericin; assay type: cell-based; design: endogenous in cells; host or cells: THP-1 macrophages (PMA-differentiated, LPS-primed); conditions: THP-1 macrophages, ASC2-LSSmOrange, LPS 3 h
NLRP3 inflammasome (Homo sapiens, UniProt Q9ULZ3), sequence (Q9ULZ3 whole entry): as the sequence (Q9ULZ3 whole entry) above
From the text: Generation of THP-1 and IMACs stable cells. […] Single cell clones were generated for THP-1 cells stably expressing ASC2-LSSmOrange.
as §1
ImageStream imaging flow cytometry.

B1: bat ASC2: ASC2 (PYRIN-only protein) of the bat Pteropus alecto, SEQ ID NO:11; expressed from vectors or as Dox-inducible transgene (protein)
chain: MGKKRDAILEALENLTADELKKFKLKLGAAPLRQGFRNIPRGALGPLDAVDLTDKLVAFYCEDYGAELTAVVLRDIGMQEEAERLQGVA
PYD-PYD protein-protein interaction (NanoBiT luminescence signal) [1]: inhibit PYD-PYD protein-protein interaction | ASC speck formation (bat NLRP3 inflammasome activation) (bat NLRP3 inflammasome): inhibited bat NLRP3 inflammasome | Interaction with human ASC (co-IP) (human ASC): interact strongly with human ASC | Interaction with bat ASC (co-IP) (bat ASC): interact with bat ASC more strongly than human ASC2 | Activation of NLRP3 inflammasome (LDH release, IL-1β) (NLRP3 inflammasome [2]): suppressed the activation | In vitro IL-1β response to IAV infection (IAV): significantly lower | Viral titres in supernatants (IAV): no obvious difference | IL-1β secretion triggered by PRV3M ([3]; LPS 3 h, PRV3M MOI=5, 24 h, Dox, FIG. 10G): substantially inhibited | Viral load for PRV3M ([3]; MOI=5, 24 h, FIG. 10E): without affecting the viral load | Recruitment of neutrophils and inflammatory monocytes (peritoneal lavage) ([4]; FIG. 8B, 8C): significantly reduced | IL-1β release in the peritoneal lavage ([4]; FIG. 8D): decreased | Pyroptotic cell death (LDH release) (NLRP3 inflammasome [5]; nigericin 2 h, compared with human ASC2, FIG. 3E): significantly more downstream inhibition | Secretion of IL-1β in the supernatants (NLRP3 inflammasome [5]; nigericin 2 h, compared with human ASC2, FIG. 3F): significantly more downstream inhibition | Induction of ASC specks (NLRP3 inflammasome [5]; nigericin, FIG. 4B, 4C): inhibited the induction of ASC specks more potently than human ASC2
